Ends that are not written are not given here.
The binders below were run against T1, antibody G1 Fab fragment (assay: Biacore competition: 10 µM peptide with 50 nM G1 Fab over human α-CGRP chip).
T1 construct: Fab expressed in E. coli; purified on Ni-NTA, tag not described
Text: Y axis represents percentage of binding blocked by the presence of the competing peptide compared with the binding in the absence of the competing peptide.
All these peptides are amidated at the C-terminus.

T1 sequence (VH, as listed by the source, chain 1 of 2): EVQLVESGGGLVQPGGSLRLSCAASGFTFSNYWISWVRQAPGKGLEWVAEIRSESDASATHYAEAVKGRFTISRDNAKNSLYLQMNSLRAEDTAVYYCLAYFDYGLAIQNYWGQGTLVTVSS
T1 sequence (VL, as listed by the source, chain 2 of 2): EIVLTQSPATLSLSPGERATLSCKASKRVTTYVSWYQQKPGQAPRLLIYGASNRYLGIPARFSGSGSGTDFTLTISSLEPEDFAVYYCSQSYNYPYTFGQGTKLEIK

Row | Binder | percentage of binding blocked
1 | NFVPTNVGSKAF-NH2 [human α-CGRP 26-37] | 100%
2 | ACDTATCVTHRLAGLLSRSGGVVKNNFVPTNVGSKA-OH (ends and bridges not checked, not C-terminally amidated; also called 1-36 (not amidated at the C-terminus)) [human α-CGRP 1-36-COOH] | ~40%
3 | VTHRLAGLLSRSGGVVKNNFVPTNVGSKAF-NH2 [human α-CGRP 8-37] | 100%
4 | ACDTATCVTHRLAGLLSRSGGVVKNNFVPTNVGSKAF-NH2 (cysteine pairing not given here, also called full length human α-CGRP) [human α-CGRP 1-37 (WT)] | 100%
5 | SCNTATCVTHRLAGLLSRSGGVVKDNFVPTNVGSKAF-NH2 (cysteine pairing not given here, also called rat β (1-37)) [rat β-CGRP (1-37)] | 100%
6 | ACNTATCVTHRLAGLLSRSGGMVKSNFVPTNVGSKAF-NH2 (cysteine pairing not given here, also called human β (1-37); 1-37 of β-CGRP (WT)) [human β-CGRP (1-37)] | 100%

Reference: patent US20180111984A1 (Teva, published 2018)
